Values of other authors in paper PMC6008173.

Target: PCDH15 EC1-2 (Mus musculus) (UniProt Q99PJ1)

Substance: CDH23 EC1-2 (from UniProt Q99PF4)
- Kd: 3000 nM
